The text below walks through data of patent publication US20240343802A1 (Zymeworks, published 2024).

Residue numbers refer to the chain shown, from its start. Names and notes keep the numbering of the source. Read-outs that look alike come from different tables or passages of the source.

The target of assay [1] is T1, CD19 on CD19-expressing Raji B cells (human, UniProt P15391 20-556).
T1 construct: whole, on cells
T1 sequence (looked up): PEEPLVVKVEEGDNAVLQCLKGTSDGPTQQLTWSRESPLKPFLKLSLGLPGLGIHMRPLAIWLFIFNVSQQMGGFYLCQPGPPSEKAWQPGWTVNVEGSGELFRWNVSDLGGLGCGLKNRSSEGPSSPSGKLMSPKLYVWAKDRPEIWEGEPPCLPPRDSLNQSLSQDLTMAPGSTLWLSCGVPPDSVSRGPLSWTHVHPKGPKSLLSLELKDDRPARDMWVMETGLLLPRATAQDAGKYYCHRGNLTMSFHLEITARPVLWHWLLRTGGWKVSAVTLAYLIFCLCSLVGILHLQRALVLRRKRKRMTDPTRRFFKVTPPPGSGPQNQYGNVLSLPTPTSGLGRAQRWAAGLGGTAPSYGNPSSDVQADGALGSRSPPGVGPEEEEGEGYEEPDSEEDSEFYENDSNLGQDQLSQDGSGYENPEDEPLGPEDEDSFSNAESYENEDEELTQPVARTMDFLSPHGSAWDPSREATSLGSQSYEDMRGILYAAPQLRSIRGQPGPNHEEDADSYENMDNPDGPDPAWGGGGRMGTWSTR
As to the kind of experiment: FACS, Raji cells.

For assay [2], the target named is T2, CD32aWT (UniProt P12318 36-218).
T2 construct: also called CS32a
T2 sequence (looked up): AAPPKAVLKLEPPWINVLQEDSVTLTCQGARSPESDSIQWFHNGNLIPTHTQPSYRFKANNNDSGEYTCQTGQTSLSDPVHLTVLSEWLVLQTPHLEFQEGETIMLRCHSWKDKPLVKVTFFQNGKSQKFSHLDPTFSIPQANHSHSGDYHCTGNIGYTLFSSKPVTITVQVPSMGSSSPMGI
As to the kind of experiment: SPR, antibody captured, FcγR injected.

Assay [3] addresses T3, CD32bWT (UniProt P31994 43-217).
T3 sequence (looked up): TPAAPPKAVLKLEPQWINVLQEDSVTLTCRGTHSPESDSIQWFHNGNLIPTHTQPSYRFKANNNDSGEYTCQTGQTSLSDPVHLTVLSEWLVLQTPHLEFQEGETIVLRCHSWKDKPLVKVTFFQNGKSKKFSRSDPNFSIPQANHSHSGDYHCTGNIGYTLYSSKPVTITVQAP
As to the kind of experiment: SPR, antibody captured, FcγR injected.

In assay [4] the target is T4, CD3 on CD3-expressing T cells (Jurkat, HPB-ALL) (UniProt P07766 23-207).
T4 construct: whole, on cells; A multi-chain complex on cells; also called CD3 complex
As to the kind of experiment: whole cell binding by FACS on CD3-expressing Jurkat T cells; concentration not shown.

The target in assay [5] is T4, CD3 on CD3-expressing T cells (Jurkat, …). As to the kind of experiment: FACS, Jurkat cells.
For assay [6] the target is unchanged. The assay can be described thus: FACS, HPB-ALL cells.
For assay [7] the target is unchanged. As to the kind of experiment: FACS, HBP-ALL T cells.
For assay [8], the target named is CD16aWT (UniProt P08637 17-208). As to the kind of experiment: SPR, antibody captured, FcγR injected.
For assay [9], the target named is T5, mouse CD19 on Mouse spleen cells (mouse, UniProt P25918).
T5 construct: on the surface of freshly isolated mouse spleen cells
T5 sequence (CD19 on the cell surface, looked up): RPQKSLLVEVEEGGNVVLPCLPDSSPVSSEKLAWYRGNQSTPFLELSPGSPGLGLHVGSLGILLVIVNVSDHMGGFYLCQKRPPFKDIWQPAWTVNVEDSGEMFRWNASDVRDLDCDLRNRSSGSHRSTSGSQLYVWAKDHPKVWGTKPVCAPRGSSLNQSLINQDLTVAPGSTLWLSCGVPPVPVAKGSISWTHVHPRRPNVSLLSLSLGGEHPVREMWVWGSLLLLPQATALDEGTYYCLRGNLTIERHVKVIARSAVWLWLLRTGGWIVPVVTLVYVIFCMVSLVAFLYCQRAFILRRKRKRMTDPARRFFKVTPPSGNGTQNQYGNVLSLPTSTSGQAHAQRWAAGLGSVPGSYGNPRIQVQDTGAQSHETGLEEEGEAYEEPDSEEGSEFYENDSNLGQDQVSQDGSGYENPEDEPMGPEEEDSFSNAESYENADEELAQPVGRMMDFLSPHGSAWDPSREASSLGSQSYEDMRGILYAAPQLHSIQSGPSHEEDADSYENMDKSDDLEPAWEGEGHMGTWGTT
The assay can be described thus: FACS on freshly isolated mouse spleen cells, Mean RFU normalized to human IgG.

Assay [10] addresses T6, cynomologous CD3 receptor antigen (coated, ELISA) (cynomolgus [Macaca fascicularis], UniProt Q95LI5 22-117).
T6 sequence (looked up): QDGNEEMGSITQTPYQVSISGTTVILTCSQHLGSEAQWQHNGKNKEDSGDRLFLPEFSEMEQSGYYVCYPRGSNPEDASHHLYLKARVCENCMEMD
As to the kind of experiment: ELISA on coated cynomolgus CD3 receptor antigen ('Cyno-CD3-HEK'), anti-human Fcgamma specific secondary antibody, TMB, OD450.

Assay [11] deals with T1, CD19 on CD19-expressing Raji B cells. The assay can be described thus: FACS, Raji cells. The source holds these as a separate data set.
Assay [12] has the same target. As to the kind of experiment: whole cell binding by FACS on Raji B cells, RFU against concentration (nM, log axis).

B1: v1379, anti-CD19 BiTE (VL-VH) scFv / anti-CD3 BiTE (VH-VL) scFv heterodimeric Fc (bispecific antibody)
chain 1: DIQLTQSPASLAVSLGQRATISCKASQSVDYDGDSYLNWYQQIPGQPPKLLIYDASNLVSGIPPRFSGSGSGTDFTLNIHPVEKVDAATYHCQQSTEDPWTFGGGTKLEIKGGGGSGGGGSGGGGSQVQLQQSGAELVRPGSSVKISCKASGYAFSSYWMNWVKQRPGQGLEWIGQIWPGDGDTNYNGKFKGKATLTADESSSTAYMQLSSLASEDSAVYFCARRETTTVGRYYYAMDYWGQGTTVTVSSAAEPKSSDKTHTCPPCPAPELLGGPSVFLFPPKPKDTLMISRTPEVTCVVVDVSHEDPEVKFNWYVDGVEVHNAKTKPREEQYNSTYRVVSVLTVLHQDWLNGKEYKCKVSNKALPAPIEKTISKAKGQPREPQVYVYPPSRDELTKNQVSLTCLVKGFYPSDIAVEWESNGQPENNYKTTPPVLDSDGSFALVSKLTVDKSRWQQGNVFSCSVMHEALHNHYTQKSLSLSPGK
chain 2: not shown
notes: WT effector Fc; copies: 1 + 1
On to B1, for which the Kd in assay [1] amounted to 2.12 nM; in assay [2], 600 nM; in [3], 470 nM.

B2: one-armed anti-CD19 antibody (v869: anti-CD19 BiTE scFv (VL-VH) on chain A, Fc only on chain B) (antibody)
chain 1: B1 chain 1 with V387T
chain 2: not shown
notes: also called anti-CD19 OAA; anti-CD19 one arm constructs
On to B2, for which, in assay [4], the binding result is “no binding”.

B3: v875, bispecific anti-CD19 BiTE (VL-VH) scFv / anti-CD3 OKT3 (VL-VH) scFv on a heterodimeric IgG1 Fc (bispecific antibody)
chain 1: B1 chain 1 with V387T
chain 2: not shown
notes: Chain A/B is assigned by order only; copies: 1 + 1
B3: the “Bmax (OD450)” value in assay [5] turned out to be 1.59 OD450. The Kd stood at 21.4 nM in [5]; 4.7 nM in [6]; 19.1 nM in assay [7]; 1000 nM in assay [8]; 590 nM in assay [2]; 430 nM in [3]. Besides, in assay [9], the binding result is listed as “no binding (tested: 100 nM)”.

B4: v1666-213-A (bispecific antibody)
chain 1: not shown
chain 2: B1 chain 1 with L271A, L272A, D302S, Y388L, T403L, K429L, T431W, A442F, V444Y
Consider B4, for which the binding result in assay [10] is “no binding (tested: 300 nM)”.

B5: v1381, anti-CD19 BiTE (VL-VH) scFv / anti-CD3 BiTE (VH-VL) scFv heterodimeric Fc with N297A (bispecific antibody)
chain 1: B1 chain 1 with N334A
chain 2: not shown
notes: Fc knock-out N297A on both chains; copies: 1 + 1
With B5, the Bmax in assay [1] is 13900. The same molecule had a Kd in assay [1] of 2.36 nM. The binding result in [8], in assay [2] and in [3] was “no binding (tested: FcγR injected up to 10,000 nM)” in each case.

B6: v873, bispecific anti-CD19 BiTE (VL-VH) scFv / anti-CD3 BiTE (VH-VL) scFv on a heterodimeric IgG1 Fc (bispecific antibody)
chain 1: B1 chain 1 with V387T
chain 2: not shown
notes: chain A/B is assigned by order only; also called bispecific CD19-CD3(VH-VL-BiTE)
Turning to B6, in assay [11], the affinity, expressed as Kd, was 2.7 nM. Moreover, the binding result in [9] is recorded as “no binding (tested: 100 nM)”. The “EC50 (read off the curve)” value in [12] is ~3 nM.
